Non-standard residues stand in square brackets, D forms with d. No end group written: not given here. *: point of attachment. benzylureido = benzylcarbamoyl on the N-terminal amino group, O=C(NCc1ccccc1)*; amidino = amidino group on the N-terminal amino group, N=C(N)*; Pro(trans-4-F) = O=C(O)[C@@H]1C[C@@H](F)CN1; Arg(Me) = CNC(=N)NCCC[C@H](N)C(=O)O; Dap(CONH2) = NC(=O)NC[C@H](N)C(=O)O; Hyp = O=C(O)[C@@H]1C[C@@H](O)CN1; Cha = N[C@@H](CC1CCCCC1)C(=O)O; dCha = N[C@H](CC1CCCCC1)C(=O)O; Decanoyl = CCCCCCCCCC(=O)*; Carbamoyl = NC(=O)*; azaGly = NNC(=O)O; Ms = CS(=O)(=O)*
B1: Compound No. 965: des(1)-decanoyl[D-Tyr2,Hyp3,Thr5,AzaGly7,Arg(Me)9,Trp10]MS10 (peptide)
peptide: Decanoyl-[dY][Hyp]NTF[azaGly]L[Arg(Me)]W-NH2
SMILES: CCCCCCCCCC(=O)N[C@H](Cc1ccc(O)cc1)C(=O)N1C[C@H](O)C[C@H]1C(=O)N[C@@H](CC(N)=O)C(=O)N[C@H](C(=O)N[C@@H](Cc1ccccc1)C(=O)NNC(=O)N[C@@H](CC(C)C)C(=O)N[C@@H](CCCNC(=N)NC)C(=O)N[C@@H](Cc1c[nH]c2ccccc12)C(N)=O)[C@@H](C)O
B2: Compound No. 971: des(1)-Amidino-[D-Tyr2,Hyp3,Thr5,AzaGly7,Arg(Me)9,Trp10]MS10 (peptide)
peptide: amidino-[dY][Hyp]NTF[azaGly]L[Arg(Me)]W-NH2
SMILES: CNC(=N)NCCC[C@H](NC(=O)[C@H](CC(C)C)NC(=O)NNC(=O)[C@H](Cc1ccccc1)NC(=O)[C@@H](NC(=O)[C@H](CC(N)=O)NC(=O)[C@@H]1C[C@@H](O)CN1C(=O)[C@@H](Cc1ccc(O)cc1)NC(=N)N)[C@@H](C)O)C(=O)N[C@@H](Cc1c[nH]c2ccccc12)C(N)=O
B3: Compound No. 967: des(1)-Ureido-[D-Tyr2,Hyp3,Thr5,AzaGly7,Arg(Me)9,Trp10]MS10 (peptide)
peptide: Carbamoyl-[dY][Hyp]NTF[azaGly]L[Arg(Me)]W-NH2
SMILES: CNC(=N)NCCC[C@H](NC(=O)[C@H](CC(C)C)NC(=O)NNC(=O)[C@H](Cc1ccccc1)NC(=O)[C@@H](NC(=O)[C@H](CC(N)=O)NC(=O)[C@@H]1C[C@@H](O)CN1C(=O)[C@@H](Cc1ccc(O)cc1)NC(N)=O)[C@@H](C)O)C(=O)N[C@@H](Cc1c[nH]c2ccccc12)C(N)=O
B4: Compound No. 963: des(1)-Ms-[D-Tyr2,Hyp3,Thr5,AzaGly7,Arg(Me)9,Trp10]MS10 (peptide)
peptide: Ms-[dY][Hyp]NTF[azaGly]L[Arg(Me)]W-NH2
SMILES: CNC(=N)NCCC[C@H](NC(=O)[C@H](CC(C)C)NC(=O)NNC(=O)[C@H](Cc1ccccc1)NC(=O)[C@@H](NC(=O)[C@H](CC(N)=O)NC(=O)[C@@H]1C[C@@H](O)CN1C(=O)[C@@H](Cc1ccc(O)cc1)NS(C)(=O)=O)[C@@H](C)O)C(=O)N[C@@H](Cc1c[nH]c2ccccc12)C(N)=O
B5: Compound No. 966: des(1)-Benzylureido-[D-Tyr2,Hyp3,Thr5,AzaGly7,Arg(Me)9,Trp10]MS10 (peptide)
peptide: benzylureido-[dY][Hyp]NTF[azaGly]L[Arg(Me)]W-NH2
SMILES: CNC(=N)NCCC[C@H](NC(=O)[C@H](CC(C)C)NC(=O)NNC(=O)[C@H](Cc1ccccc1)NC(=O)[C@@H](NC(=O)[C@H](CC(N)=O)NC(=O)[C@@H]1C[C@@H](O)CN1C(=O)[C@@H](Cc1ccc(O)cc1)NC(=O)NCc1ccccc1)[C@@H](C)O)C(=O)N[C@@H](Cc1c[nH]c2ccccc12)C(N)=O
B6: Compound No. 977: des(1-2)-[Hyp3,Thr5,AzaGly7,Arg(Me)9,Trp10]MS10 (peptide)
peptide: [Hyp]NTF[azaGly]L[Arg(Me)]W-NH2
modifications: N-terminus assumed
SMILES: CNC(=N)NCCC[C@H](NC(=O)[C@H](CC(C)C)NC(=O)NNC(=O)[C@H](Cc1ccccc1)NC(=O)[C@@H](NC(=O)[C@H](CC(N)=O)NC(=O)[C@@H]1C[C@@H](O)CN1)[C@@H](C)O)C(=O)N[C@@H](Cc1c[nH]c2ccccc12)C(N)=O

The binders below were run against metastin receptor (OT7T175) stably expressed on CHO cells (assay: cell-based or functional assay).

Row | Binder | Specific Activity: EC50 of the test compound based on EC50 of Metastin (45-54); agonist activity by change in intracellular calcium ion level (Fluo-4 NW, FLIPR) in receptor-expressing CHO cells [ratio]
1 | Ac-[dY][Hyp][Dap(CONH2)]T[dCha]GL[Arg(Me)]W-NH2 (also: Gly7-Leu8 -CONH- replaced by (E)-CH=CH-) [Compound No. 975: des(1)-Ac-[D-Tyr2,Hyp3,Alb4,Thr5,D-Cha6,Gly7ψ((E)CH=CH)Leu8,Arg(Me)9,Trp10]MS10] | 2.3
2 | B1 | 4.1
3 | Ac-[dY][Hyp]NT[Cha][azaGly]L[Arg(Me)]W-NH2 [Compound No. 969: des(1)-Ac-[D-Tyr2,Hyp3,Thr5,Cha6,AzaGly7,Arg(Me)9,Trp10]MS10] | 0.3
4 | Ac-[dY][Pro(trans-4-F)]NT[Cha][azaGly]L[Arg(Me)]W-NH2 [Compound No. 970: des(1)-Ac-[D-Tyr2,Pro(4F)3,Thr5,Cha6,AzaGly7,Arg(Me)9,Trp10]MS10] | 0.6
5 | Ac-[dY][Hyp][Dap(CONH2)]T[Cha]GL[Arg(Me)]W-NH2 (also: Gly7-Leu8 -CONH- replaced by (E)-CMe=CH-) [Compound No. 986: des(1)-Ac-[D-Tyr2,Hyp3,Alb4,Thr5,Cha6,Gly7ψ((E)CMe=CH)Leu8,Arg(Me)9,Trp10]MS10] | 0.3
6 | B2 | 0.4
7 | B3 | 0.6
8 | B4 | 0.9
9 | Ac-[dY][Hyp][Dap(CONH2)]T[Cha]G[dL][Arg(Me)]W-NH2 (also: Gly7-D-Leu8 -CONH- replaced by (E)-CH=CH-) [Compound No. 976: des(1)-Ac-[D-Tyr2,Hyp3,Alb4,Thr5,Cha6,Gly7ψ((E)CH=CH)D-Leu8,Arg(Me)9,Trp10]MS10] | 1
10 | B5 | 1.9
11 | B6 | 1.7

— patent publication US20110118172A1 (Takeda / Millennium, published 2011)
